Assay [1] has as its target GST-Shroom3 SD2 R1838A (mouse) (UniProt Q9QXN0). The assay can be described thus: pull-down; GST-Shroom3 SD2 variants bound to glutathione beads, His-tagged hRock1 SBD soluble; 2 hours at room temperature; washed with NETN; SDS-PAGE, Coomassie Blue.
The target in assay [2] is GST-Shroom3 SD2 R1838C (mouse) (UniProt Q9QXN0). The description is as above.

UniProt Q9QXN0, sequence (Q9QXN0 1562-1986, stated change not applied): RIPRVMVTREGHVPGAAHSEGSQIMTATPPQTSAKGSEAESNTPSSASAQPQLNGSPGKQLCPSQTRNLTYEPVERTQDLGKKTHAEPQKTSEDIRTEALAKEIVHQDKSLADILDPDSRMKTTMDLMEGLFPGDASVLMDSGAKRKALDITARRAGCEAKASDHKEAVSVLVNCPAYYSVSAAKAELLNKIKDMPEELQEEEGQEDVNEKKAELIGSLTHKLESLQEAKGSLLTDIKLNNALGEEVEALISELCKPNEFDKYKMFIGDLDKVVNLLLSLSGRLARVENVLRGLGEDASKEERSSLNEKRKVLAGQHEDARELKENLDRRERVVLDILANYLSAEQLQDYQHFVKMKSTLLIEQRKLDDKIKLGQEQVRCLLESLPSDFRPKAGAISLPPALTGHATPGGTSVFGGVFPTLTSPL

As to “His-tagged human Rock1 Shroom-Binding domain (SBD), amino acids 707-946 (from UniProt Q13464 707-946) (domain or fragment)”, the percent reduction in binding relative to wild type in assay [1] came out at 45%; in assay [2], 95%.

Source of the values: publication PMC4163662.
